# T1: HHLA2 (B7-H7)
# T1 construct: coated protein in the ELISA; also called HHLA2-Fc (R&D Systems)
# T1 chain: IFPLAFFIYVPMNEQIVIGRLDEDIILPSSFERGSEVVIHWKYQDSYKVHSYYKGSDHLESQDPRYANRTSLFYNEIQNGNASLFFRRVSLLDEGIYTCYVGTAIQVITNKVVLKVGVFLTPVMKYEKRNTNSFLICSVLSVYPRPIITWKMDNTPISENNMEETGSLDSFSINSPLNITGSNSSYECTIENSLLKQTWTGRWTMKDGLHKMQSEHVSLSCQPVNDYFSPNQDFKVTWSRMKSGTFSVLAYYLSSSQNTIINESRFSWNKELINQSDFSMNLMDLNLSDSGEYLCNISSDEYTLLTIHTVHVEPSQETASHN
# T2: SELL (L-Selectin)
# T2 construct: coated protein in the ELISA; also called SELL-Fc-His (R&D Systems)
# T2 chain: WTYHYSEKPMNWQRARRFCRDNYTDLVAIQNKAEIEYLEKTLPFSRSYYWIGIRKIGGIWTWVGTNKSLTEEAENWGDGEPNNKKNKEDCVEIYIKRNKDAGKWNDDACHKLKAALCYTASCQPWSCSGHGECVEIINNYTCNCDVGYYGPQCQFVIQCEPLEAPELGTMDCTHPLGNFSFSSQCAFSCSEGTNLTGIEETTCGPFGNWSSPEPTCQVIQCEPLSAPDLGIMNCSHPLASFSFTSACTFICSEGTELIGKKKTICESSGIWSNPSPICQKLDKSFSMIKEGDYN
# T3: DCC
# T3 construct: coated protein in the ELISA; also called DCC-His (R&D Systems)
# T3 chain: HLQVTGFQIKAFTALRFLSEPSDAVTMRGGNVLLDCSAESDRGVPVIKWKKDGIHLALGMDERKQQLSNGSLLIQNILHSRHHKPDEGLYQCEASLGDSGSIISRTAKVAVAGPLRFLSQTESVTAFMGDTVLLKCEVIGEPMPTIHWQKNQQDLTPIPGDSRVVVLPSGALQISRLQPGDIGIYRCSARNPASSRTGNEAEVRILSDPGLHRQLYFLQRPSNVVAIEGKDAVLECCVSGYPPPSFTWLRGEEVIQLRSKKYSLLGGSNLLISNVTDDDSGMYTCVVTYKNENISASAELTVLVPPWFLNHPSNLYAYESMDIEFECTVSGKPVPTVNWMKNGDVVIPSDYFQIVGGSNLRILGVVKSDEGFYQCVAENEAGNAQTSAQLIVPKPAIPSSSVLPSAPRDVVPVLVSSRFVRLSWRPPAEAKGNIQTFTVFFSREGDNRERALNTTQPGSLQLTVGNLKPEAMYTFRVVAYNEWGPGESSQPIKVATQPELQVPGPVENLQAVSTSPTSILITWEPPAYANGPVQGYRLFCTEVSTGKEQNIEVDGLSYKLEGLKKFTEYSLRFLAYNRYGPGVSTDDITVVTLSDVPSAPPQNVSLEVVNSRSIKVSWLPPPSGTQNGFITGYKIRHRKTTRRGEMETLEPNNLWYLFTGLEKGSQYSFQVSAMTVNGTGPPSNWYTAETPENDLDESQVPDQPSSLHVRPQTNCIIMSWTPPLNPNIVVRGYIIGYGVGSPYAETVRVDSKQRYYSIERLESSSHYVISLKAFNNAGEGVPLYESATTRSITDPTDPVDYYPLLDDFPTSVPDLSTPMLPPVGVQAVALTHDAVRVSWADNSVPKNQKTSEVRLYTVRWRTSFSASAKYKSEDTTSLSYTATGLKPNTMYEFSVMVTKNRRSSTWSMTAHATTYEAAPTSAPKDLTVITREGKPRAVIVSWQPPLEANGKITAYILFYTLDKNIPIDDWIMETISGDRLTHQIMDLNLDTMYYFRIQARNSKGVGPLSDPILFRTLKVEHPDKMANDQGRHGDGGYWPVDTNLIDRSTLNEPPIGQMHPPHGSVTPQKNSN
# T4: ANXA1
# T4 construct: coated protein in the ELISA; also called ANXA1-His (R&D Systems)
# T4 chain: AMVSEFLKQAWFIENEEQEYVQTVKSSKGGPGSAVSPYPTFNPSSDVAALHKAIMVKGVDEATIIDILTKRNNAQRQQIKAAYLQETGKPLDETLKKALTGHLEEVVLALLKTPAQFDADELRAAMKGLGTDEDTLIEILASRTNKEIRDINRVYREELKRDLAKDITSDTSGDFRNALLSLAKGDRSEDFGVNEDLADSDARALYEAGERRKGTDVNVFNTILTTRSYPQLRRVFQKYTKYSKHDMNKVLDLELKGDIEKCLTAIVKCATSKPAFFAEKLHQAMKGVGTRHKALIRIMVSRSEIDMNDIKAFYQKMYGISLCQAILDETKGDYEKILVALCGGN
# B1: TH9-0022 (antibody, human IgG1, kappa, L234A L235A, V domains shown)
# VH: QSLEESGGRLVTPGTPLTLTCTVSGFSLSSYAMNWVRQAPGKGLEWIGIINSYGSTYYASWAKGRFTISKTSTTVDLKITSPTTEDTATYFCARVTYDSYGYGYAPYGMDLWGPGTLVTVSS
# VL: LVMTQTPSSTSNAVGGTVTIKCQASQSIGNVLAWYQQKPGQPPKLLIYAASTLASGVPSRVGGSRSGTEYTLTISGVQREDAATYYCLGSDSDSDIAFGGGTELEILR
# notes: also called TH9-022; negative control
# B2: HW-42 chimeric rabbit-human IgG1 LA/LA/PG (antibody, V domains shown)
# VH: QSVKESEGGLFKPADTLTLTCTVSGFSLSSNEISWVRQAPGEGLEYIGIIDTGGRAYYAVWARSRSTITRNTNLNTVTLKMTSLTAADTATYFCARGGVDTEWYAFSSWGPGTLVTVPS
# VL: SFVLTQPASVQVNLGQTVSLTCTADTLSRRYASWYQQKPGQAPVLLIFRDTSRPSGVPDRFSGSSSGDTATLTISGAQAGDEADYYCATSDGSGSNYQYVFGGGTQLTVTG
# notes: Fc-silenced (L234A/L235A/P329G) IgG1, lambda; Alexa Fluor 647-labeled in single-step flow cytometry; Cluster C-1
# B3: HW-70 chimeric rabbit-human IgG1 LA/LA/PG (antibody, V domains shown)
# VH: QSLEESGGRLVTPGTPLTLTCTVSGFSLSSNAMSWVRQAPGKGLEWIGTIDGYGYTYYASWAKGRFTVSKTSTTVDLKITSPTTEDTATYFCAREIYLGSNFWGPGTLVTISS
# VL: SFVLTQPASVQVNLGQTVSLTCTADTLSRRYASWYQQKPGQAPVLLIYRDTSRPSGVPDRFSGSSSGNTATLTISGAQAGDEADYYCATADGSGSSYQFVFGGGTQLTVTG
# notes: as for B2
# B4: HW-25 chimeric rabbit-human IgG1 LA/LA/PG (antibody, V domains shown)
# VH: QSLEESGGRLVTPGTPLTLTCTVSGFSLSSYAMGWVRQAPGKGLEWIGIIDSRGSTYYATWAKGRFTISKTSTTVDLKITSPTTEDTATYFCAREDSYYYDSFNLWGPGTLVTVSS
# VL: SFVLTQPASVQVNLGQTVSLTCTADTLSRRYASWYQQKPGQAPVLLIYRDTSRPSGVPDRFSGSSSGNTATLTISGAQAGDEADYYCATSDGSGSSYQCVFGGGTQLTVTG
# notes: as for B2
# B5: HW-1 chimeric rabbit-human IgG1 LA/LA/PG (antibody, V domains shown)
# VH: QSLEESGGGLFKPTDTLTLTCTASGFSLGSSYAISWVRQAPGKELEWIGTIDSGRAYYARWAKSRSTITRNTNENTVTLKMTSLTAADTATYFCARDLIPTYSQDIWGPGTLVTISS
# VL: SFVLTQPASVQVNLGQTVSLTCTADTLSRRYASWYQQKPGQAPVLLIYRDTSRPSGVPDRFSGSSSGNTATLTISGAQAGDEADYYCATSDGSGNSYQYVFGGGTQLTVTS
# notes: Fc-silenced (L234A/L235A/P329G) IgG1, lambda; Alexa Fluor 647-labeled in single-step flow cytometry; Prototype of cluster C-1
# B6: HW-28 chimeric rabbit-human IgG1 LA/LA/PG (antibody, V domains shown)
# VH: QKQLVESGGRLVTPGTPLTLTCTASGFSLSSNAMSWVRQAPGEGLQWIGTISSGGSTYYASWAKGRFTISKTSTTVTLKMTSLTTEDTATYFCARGADLHRLWGPGTLVTVSS
# VL: SFVLTQPASVQVNLGQTVSLTCTGKPLSRSFASWYQQKPGQAPVLVIYRDTSRPSGVPDRFSGSSSGNTATLTISGAQAGDEADYYCATSDGSGSSYQYVFGGGTQLTVTG
# notes: Fc-silenced (L234A/L235A/P329G) IgG1, lambda; Alexa Fluor 647-labeled in single-step flow cytometry; Cluster C-45
# B7: HW-16 chimeric rabbit-human IgG1 LA/LA/PG (antibody, V domains shown)
# VH: QSLEESGGRLVTPGTPLTLTCTASGFSLSSYAMSWVRQAPGKGLEWIGTMPTGGGTYYASWAKGRFTISKTSTTVDLQITSPTTEDTATYFCAKHWNIWGPGTLVTISS
# VL: DIVLTQTPSSTSTAVGDTVTINCRASQSIGRNLAWFQQKPGQPPKLLIYRASNLASGVPSRFKGSGSRTQFTLTISGVQREDAATYYCLGSYSSSDTAFGGGTELEILR
# notes: Fc-silenced (L234A/L235A/P329G) IgG1, kappa; Alexa Fluor 647-labeled in single-step flow cytometry; Cluster C-45
# Legend:
# HHLA2 (B7-H7) = biological target: T1, HHLA2 (B7-H7); assay: ELISA on coated HHLA2-Fc
# Procedure: (§1) Recombinant purified ECDs (50-150 ng) of each putative target protein were coated, incubated with 150 ng of the indicated primary antibody, and binding was detected using a peroxidase-conjugated anti-human Fab secondary antibody. Heatmap represents averages of technical triplicates. (8B) Target validation via siRNA knockdown. H929 cells were transfected with siRNA pools targeting the putative antibody targets ICAM1, CADM1, and PTPRG. Cells were then subjected to cognate IgG binding analysis via flow cytometry. (NT, non-targeting siRNA).
# (§2) ELISA ELISA was conducted as described previously. Briefly, 50-150 ng of antigen was coated overnight in half-area 96-well plates at 4° C., blocked with 3% BSA at 37° C. for 1 h, and 150 ng of chimeric rabbit/human IgG1 was added, incubating for 2 h at 37° C. […] After incubating at 37° C. for 15 min-1 h (depending on intensity of controls), data were acquired using a SpectraMax M5 plate reader (Molecular Devices).
# SELL (L-Selectin) = biological target: T2, SELL (L-Selectin); assay: ELISA on coated SELL-Fc-His, 150 ng IgG1; None 0.096
# Procedure: as §1, §2
# DCC = biological target: T3, DCC; assay: ELISA on coated DCC-His
# Procedure: as §1, §2
# ANXA1 = biological target: T4, ANXA1; assay: ELISA on coated ANXA1-His
# Procedure: as §1, §2
# PTP4A3 (PRL-3) [1] = biological target: T5, PTP4A3 (PRL-3); assay: ELISA on coated His-PTP4A3
# T5 construct: coated protein in the ELISA; also called His-PTP4A3 (R&D Systems)
# Procedure: as §1, §2
# ICAM1-Fc (R&D Systems) = biological target: T6, ICAM1-Fc (R&D Systems) (human, UniProt P05362 28-480); assay: ELISA on coated ICAM1-Fc, 150 ng IgG1; None 0.060
# T6 construct: Bought; also called ICAM-1/CD54; not shown: Fc of the bought fusion protein
# Procedure: as §1, §2
# PTP4A3 (PRL-3) [2] = biological target: T5, PTP4A3 (PRL-3); assay: ELISA on coated His-PTP4A3, 150 ng IgG1; None 0.085
# Procedure: as §1, §2
# T6 sequence (P05362 28-480): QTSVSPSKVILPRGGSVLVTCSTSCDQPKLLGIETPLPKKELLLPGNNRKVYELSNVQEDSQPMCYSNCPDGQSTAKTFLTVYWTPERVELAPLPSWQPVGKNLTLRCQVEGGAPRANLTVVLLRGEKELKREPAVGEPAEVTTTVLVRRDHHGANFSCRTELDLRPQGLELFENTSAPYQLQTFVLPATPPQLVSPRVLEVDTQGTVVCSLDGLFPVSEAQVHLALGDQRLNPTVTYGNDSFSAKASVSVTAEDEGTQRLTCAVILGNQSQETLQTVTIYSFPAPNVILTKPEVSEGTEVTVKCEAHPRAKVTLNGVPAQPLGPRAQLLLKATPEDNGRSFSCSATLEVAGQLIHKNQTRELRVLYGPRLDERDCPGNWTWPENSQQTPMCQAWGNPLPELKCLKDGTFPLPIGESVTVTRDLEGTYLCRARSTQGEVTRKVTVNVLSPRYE
# T5 sequence (chain, as listed by the source limits assumed): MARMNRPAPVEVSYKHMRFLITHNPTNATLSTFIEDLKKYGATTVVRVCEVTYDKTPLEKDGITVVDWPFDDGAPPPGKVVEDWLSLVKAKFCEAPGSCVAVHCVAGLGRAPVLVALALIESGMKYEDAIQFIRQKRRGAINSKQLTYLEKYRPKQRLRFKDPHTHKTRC
Binder,binding result (HHLA2 (B7-H7)),ELISA Absorbance (405 nm-570 nm) (SELL (L-Selectin)),binding result (DCC),binding result (ANXA1),binding result (PTP4A3 (PRL-3) [1]),ELISA Absorbance (405 nm-570 nm) (ICAM1-Fc (R&D Systems)),ELISA Absorbance (405 nm-570 nm) (PTP4A3 (PRL-3) [2])
B1,no binding (tested: 150 ng IgG1 per well),0.081,no binding (tested: 150 ng IgG1 per well),no binding (tested: 150 ng IgG1 per well),no binding (tested: 150 ng IgG1 per well),0.077,0.092
B2,no binding (tested: 150 ng IgG1 per well),0.103,no binding (tested: 150 ng IgG1 per well),no binding (tested: 150 ng IgG1 per well),no binding (tested: 150 ng IgG1 per well),0.082,0.096
B3,no binding (tested: 150 ng IgG1 per well),0.09,no binding (tested: 150 ng IgG1 per well),no binding (tested: 150 ng IgG1 per well),no binding (tested: 150 ng IgG1 per well),0.064,0.092
B4,no binding (tested: 150 ng IgG1 per well),0.067,no binding (tested: 150 ng IgG1 per well),no binding (tested: 150 ng IgG1 per well),no binding (tested: 150 ng IgG1 per well),0.054,0.079
B5,no binding (tested: 150 ng IgG1 per well),0.078,no binding (tested: 150 ng IgG1 per well),no binding (tested: 150 ng IgG1 per well),no binding (tested: 150 ng IgG1 per well),0.065,0.081
B6,,,,,,0.085,
B7,no binding (tested: 150 ng IgG1 per well),0.177,,no binding (tested: 150 ng IgG1 per well),no binding (tested: 150 ng IgG1 per well),0.055,0.105

# From US20260049134A1 (UNIVERSITY OF FLORIDA RESEARCH FOUNDATION, published 2026)
